This is an account of results in the nanobody polyreactivity screen of Harvey et al. (2022).

A short description of the series: yeast display, Sf9 membrane polyspecificity reagent, FACS + sequencing; frameworks hold sequencing errors. In outline: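 Polyreactivity labels are assigned by the sorting gate from which each nanobody was recovered. The gates were low and high (top ~1%), set on anti-HA fluorescence for expression and streptavidin fluorescence for reagent binding. Before sorting, galactose-induced (36–48 hours) yeast display cells were stained for 1 hour at 4 °C with 10% biotinylated, detergent-solubilized Sf9 membrane reagent.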
For “QVQLVESAGGLVQAGGSLRLSCAASGNIFSYYAMGWYRQAPGKERELVAAISRRGTNTYYADSVKGRFTISRDNAKNTVYLQMKSLKPEDTAVYYCARYGPYQSSYHYDYWGQGTQVTVSS”, the “polyreactivity (PSR sort gate)” value is “high polyreactivity”.

For “QVQLVESGGGLVQAGGSLRLSCAASGFIFVDYTMGWYRQAPGKERELVAAITWTGGSTYADSVKGRFTISRDNAKNTVYLQMNSLKPEDTAVYYCAAGQGPDMDYWGQGTQVTVSS”, the “polyreactivity (PSR sort gate)” value is “low polyreactivity”.

With “QVQLEESGGGLVQAGGSLRLSCAASGIFSRYAMGWDRQAPGKERELVAAISSRGSTYYADSVKGRFTISRDNAKYTVYLQLNSMKPEDTGVYYCAATVGRGKLDYWGQGTQVNVSS”, the “polyreactivity (PSR sort gate)” value is “high polyreactivity”.

With “QVQLVESGGGLVQAGGSLRLSCAASGSTFVSSAMGWYRQAPGKERELVARITWNGGNTYADSVKGRFTISRDNAKNTVYLQMNSLKPEDTAVYYCSTDYVVGFYYWGQGTQVTVSS”, the “polyreactivity (PSR sort gate)” value is “low polyreactivity”.

As to “QVQLVESGGGLVQAGGSLRLSCAASGRTFTFNAMGWYRQAPGKETELVAAISTSGGSTYYADSVKGRFTISRDNAKNTVYLQMNSLKPEDTAVYYCNTYPYYRAGGSDYWGQGTQVTVSS”, the “polyreactivity (PSR sort gate)” value is reported as “high polyreactivity”.

Turning to “QVQLVESGGGLVQAGGSLRLSCAASGSISGRYAMGWSRQAPGKEMELVAAISWIGGSTYYADSVKGRFTISRDNAKNTVYLQMISLKPEDTAVYYCYVTIDTRTDPLLVVLYGYDYWGQGTLVTVSS”, the “polyreactivity (PSR sort gate)” value is “low polyreactivity”.

In the case of “QVQLVESGGGLVQAGGSLRLSCAASGRTFERYAMGWYRQAPGKERELVAAISWSGSSTYYADSVKARFTISRDISKNTVYLHMNSLKPEDTAVYYCNALFQQRYGYWGQGTQVTVSS”, the “polyreactivity (PSR sort gate)” value is reported as “low polyreactivity”.

Turning to “QVQLVESGGGLVQAGGSLRLSCASSGIIFSYNAMGWSRQAPGKERELVAAISSGGRTYYADSVKGRFTISRDNAKNTVYLQMKSLKPEDTAVYYCATTSPHRLYGYYYDYWGQGTQVTVSS”, the “polyreactivity (PSR sort gate)” value is reported as “high polyreactivity”.

As to “QVQLVESGGGLVQAGGSLRLSCAASGRTLYRNAMGWYRQSPWKDREFVSRITWSGASTYYADSVKGRFTISRDNAKNTVYLQMNSLKPEDTAVYYCAAQYLSRRYGPYYTYNYWGQGTQVTVSS”, the “polyreactivity (PSR sort gate)” value is on record as “high polyreactivity”.

Turning to “QVQLVESGGGLVQAGGSLRLSCAASGRTFVYYTLGWYRQPPGKERELVARISAGGGITYYADSVKGRFTISRDNAKNTVYLQMNSLNREDTAVYYCAADYWFTYRRPAYEYAYWGQGTQVTVSS”, the “polyreactivity (PSR sort gate)” value was “high polyreactivity”.

“QVQLVESGGGLVQAGGSLRLSCAASGFTFTNYAMGWYRQAPGKEREFVARITWSGGSTYYADSVKGRFTISRDNAKNTVYLQMNSLKPEDTAVYYCAARGWLVRSFIYDYWGQGTQVTVSS”: the “polyreactivity (PSR sort gate)” value is “high polyreactivity”.

Consider “QVQLVESGGGLVQAGGSLRLSCAASGYIFSYYAMGWYRQAPGKEREFVAAIRWRGGSTYYADSVKGRFTISRDNAKKTVYLQMNSLKPEDTAVYYCAAGPGTSYYWGQGTQVTVSS”, for which the “polyreactivity (PSR sort gate)” value is on record as “high polyreactivity”.

Turning to “QVQLVESGGGLVQAGGSLRVSCAASGSTFYYNAMGWYRQATGKERELVAAITRSAGSTYYADSVKGRFTISRDNAKNTVYLQMNSLKPEDTAVYYCNARYSFYGSYWTSGKYDYWGQGTQVTVSS”, the “polyreactivity (PSR sort gate)” value is given as “high polyreactivity”.

With “QVQLVESGGGLVQAGGSLRLSCAASGRIFVHNAMGWYRQAPGKERELVAAISSGGSTYYADSVKGRFTISRDNAKNTVYLQMNSLKPEDTAVYYCAKYAYYKKYDYWGQGTQVTVSS”, the “polyreactivity (PSR sort gate)” value is “high polyreactivity”.

“QVQLVESGGGLVQAGGSLRLSCAASGSTFYYYAMGWYRQAPGKERELVAAINDSGDRTYYADSVKGRFTISRDNAKNNVYLQMNSLKPEDTAVYYCAADLVSLDPEYDYWGQGTQVTVSS”: the “polyreactivity (PSR sort gate)” value is recorded as “low polyreactivity”.

Regarding “QVQLVESGGVLVQAGGSLRLSCAASGSIFDHYAMGWYRQAPGKERELVAAITYSDGSTYYADSVKGRFTISRDNAKNTVFLQMNSLKPEDTAVFYCAAYPRGSQRYNYWGQGTHVTVSS”, the “polyreactivity (PSR sort gate)” value is “high polyreactivity”.

Regarding “QVQLVESAAGLVQAGGSLRLSCAASGIIFSKYAMGWYRQAPGKERELVAASSSSGGSTYYADSVKGRFTISRDNAKNTVYLQMNSLKPEDTAVYYCAKGGGPNSRGYWGQGTQVTVSS”, the “polyreactivity (PSR sort gate)” value was “high polyreactivity”.

Consider “QVQLVESGGGLVQAGGSLRLSCAASGNIFSDNTMGWYRQAPGKERELVAVITSGTSTSYADSVKGRFTISRDNAKNTEYFQMNSLKPEDTAVSYAARTGQYKTYGEYDYWGQGTQVTVSS”, for which the “polyreactivity (PSR sort gate)” value is “low polyreactivity”.

Consider “QVQLVESGGGLVQAGGSLRLSCAASGRTFAGYAMGWYRHAPGKETELVAAITTSGGRTYYADSVKGRFTISRDYAKNTVYLQMNSLKPEDTAVYYCNVASKGRYARYAAEYGYWGQGTQVTVSS”, for which the “polyreactivity (PSR sort gate)” value is “high polyreactivity”.

Consider “QVQLVESGGGLVQAGGSLRLSCAASGRIFYGYAMGWYRQAPGKERELVAAITVSGGDTYYADSVKGRFTISRDNAKNTVYLQMNSLKPEDTAVYYCAAKADKRLDYWGQGTQVTVSS”, for which the “polyreactivity (PSR sort gate)” value was “low polyreactivity”.

Regarding “QVQLVESGGGLVQAGGSLRLSCAASGSIFPAYALGWYRPAPGKERELVAAITSSCGSTYYADSVKGRFTISRDNAKNTVYLQMNSLKPEDTAVYYCATVYPGDSYVYRFDYWGQGTQVTVSS”, the “polyreactivity (PSR sort gate)” value is on record as “low polyreactivity”.

On to “QVQLVESGGGLVQAGGSLRLSCAASGFIFYYNDMGWYRQAPGKERELVAAISGGVGSTYYADSVKGRFTISRDNAKNTVYLQMNSLKPEDSAVYYCATRRYSLTYGLGYDYWGQGTQVTVSS”, for which the “polyreactivity (PSR sort gate)” value was “low polyreactivity”.

Regarding “QVQLVESGGGIVQAGGSLRLSCAASGFIFRYYVMGSYRQAPGKERELVASISRSGTSTYYADSVKGRFTISRDNAKNTVYLQMNSLKPEDTAVYYCAKGVGRGFGSATGYYWGQGTQVTVSS”, the “polyreactivity (PSR sort gate)” value is listed as “high polyreactivity”.

As to “QVQLVESGAGLVQAGGSLRLSCAPSGSTFMTYAMGWYRQAPGKERELVAAIRWSGGGTYYADSVKGRFTISRDNAKNTVYLQMNSLKPEDTAVYFCAADHFNYTTGRDYWGQGTQVTVSS”, the “polyreactivity (PSR sort gate)” value is listed as “low polyreactivity”.

Take “QVQLVESGGGLVQAGGSLRLSCAASGFIFWRNAMGWYRQAPGKERELVAAITSGDRTNYADSVKGRFTISRDNAKNTVYLQMNSLKPEDTAVYYCNARRLRLVSYDYCGQGTQVTVSS”: the “polyreactivity (PSR sort gate)” value is “low polyreactivity”.

Consider “QDQLVESGGGLVQAGGSLRLSCAASGRTFDDYAMGWSRPAPGKERELVAAINSGGNTYYADSVKGRFTISRDNAKNTVYLQMNSLKREDTADYYCAAYYRDKLSGYNYWRQGTQVTVSS”, for which the “polyreactivity (PSR sort gate)” value was “high polyreactivity”.

As to “QVQLVESGGGLVQAGGSLRLSCAASGSTFSYAMGWYRQAPGKERELVAAITIGGRTSYADSVKGRFTISRDNAKNTVYLQMNSLKPEDTAVYYCAAEGYYPVYYYVYYGYDYWGQGTQVTVSS”, the “polyreactivity (PSR sort gate)” value is on record as “low polyreactivity”.

In the case of “QVQLVESGGGLVQAGGSLRLSSAASGITFERNGMGWYRQAPGKERELVAAIRSGGSTYYADSVKGRFTISRDNAKITVYLQMNSQKPEDTAVYYCAAVTQGGYTYLGDYWGQGTQVTVSS”, the “polyreactivity (PSR sort gate)” value is listed as “low polyreactivity”.

In the case of “QVQLVESGGGLVQAGGSLRLSCAASGRIFRYNAMGWYRQAPGKERELVATISKSGGSTYYADSVKGRFTISRDNANYTVYLQMNSLKPEDTAVYYCAASYHPWLADYGYWGQGTQVSVSS”, the “polyreactivity (PSR sort gate)” value was “low polyreactivity”.

Take “QVQLVESGGGLVQAGGILRLSSAASGSIFSNYAMGWYRQAPGKERELVAAINRSGGSTYYADSVKGRFTISRDNAKNTVYLQITSLKPDDTAVYYCNAVRLYYCAGGQFQYHFWGQGTQVTVSS”: the “polyreactivity (PSR sort gate)” value is given as “high polyreactivity”.

For “QVQLVESGGGLVQAGGSLRLSCAASGYTFTQNAMGWYRQAPGKERELVASITSGGSTDYADSVKGRFTISRDNAKNTVYLQMNSLKPEDTAVYYCAKDYYAYSDYDYWGQGTQVTVSS”, the “polyreactivity (PSR sort gate)” value is reported as “low polyreactivity”.

As to “QVQIVESGGGLVQAGGSLRLSCAASGRIFKLYAMGWSRQAPGKERELVAAITRRGGSTSYADSVKGRFTISRDNAKNTVYLQMNSLKPEDTAVYYCAASYTGRTVVQGYEYWGQGTQVTVSS”, the “polyreactivity (PSR sort gate)” value is on record as “high polyreactivity”.

On to “QVQLVESGGGLVQAGGSLRLSCAASGSTFGYYARLWYRQAPGKERDLVAAISYSGGSTYYADSVKGRFTISRDNAKNTVYLQMNSLKPEDTAVYYCAARFTRQMYYWGQGTQVTVSS”, for which the “polyreactivity (PSR sort gate)” value is “high polyreactivity”.

As for “QVQLVESGGGLVQAGGSLRLSCAASGINFKGNAMGWYRQAPGKERELVATISSGGTTNYADSVKGRFTISRDNAKNTVYLQMNSLKPEDTAVYYCAKRGYYRSRRYDYWGQGTQVTVSS”, the “polyreactivity (PSR sort gate)” value is given as “high polyreactivity”.

As for “QVQLVESGGGLVQAGGSLRLSCAASGGTFRVYAMGWYRQAPGKERELFAAISSGGSTNYADSVKGRFTISRDNAKNTVYLQMNSLKPEDTAVYYCNAKYRYRFARSPIYYYWGQGTQVTVSS”, the “polyreactivity (PSR sort gate)” value is on record as “high polyreactivity”.

Consider “QVQHVESGGGLVQAGGSLRLSCAASGFTFPSYAMGWYRQAPGKERELVAGISRGGTRTYYADSVKGRFTISRDNAKNTVYLQMYSLKPEDTAVYYCAATHGLRIRFPGDYWGQGTQVTVSS”, for which the “polyreactivity (PSR sort gate)” value is recorded as “high polyreactivity”.

Consider “QVQLVESGGGLVQAGGSLRLSCAASGFIYEDYAMGWYRQAPGKERELVAAITWRGGRTYYADCVKGRYTISRDNAKNTVYLQMNSLKPEDTAVYYCRPLVYSYASRYGYWGQGTQVTVLS”, for which the “polyreactivity (PSR sort gate)” value is “high polyreactivity”.

Take “QVQLVESGGGLVQAGGSLRLSCAASGSTFDDYAMGWYRQAPGKERELVAAIYWSSGRTYYADSVKGRFTISRDNAKNTVYLQMNSLKPEDTAVYYCAARNRYDRLRYYYWGQGTQVTVSS”: the “polyreactivity (PSR sort gate)” value was “high polyreactivity”.

In the case of “QVHLVESGGGLVQAGGSLRLSCAASGRIFGTYVMGWYRQAPGKERELVARITGGGSTNYADSVKGRFTISRDNAKNTVYLQMNSLKPEDTAVYYCARDYGPYLSPENPAPMDYWGQGTQVTVSS”, the “polyreactivity (PSR sort gate)” value is “low polyreactivity”.

“QVQLVESGGGLVQAGGSLRLSCAASGSTFVENAMGWYRQAPGKEREVVAAISSSGDSTFYADSVKGRFTISRDNAKNTVYLQMKSLKPEDTAVYYCAADRRINYDGLDMDYWGQGTQVTVSS”: the “polyreactivity (PSR sort gate)” value is on record as “low polyreactivity”.

On to “QVQLVESGGGLVQAGGSLRLSCAASGSILYPYAMGWYRQAPGKERELVAAISRGGSTNYADSVKGRFTISRDNAKNTVYLQMNSLKPEDTAVYYCATAYTRFSQRYEYYVIYWQNDYWGQGTQVTVSS”, for which the “polyreactivity (PSR sort gate)” value is “low polyreactivity”.
